This passage reports binding results from publication PMC6478803.

The series deals with FleQ (Pseudomonas syringae pv. tomato DC3000) (UniProt Q884Y2). Briefly: EMSA. As to conditions: STAD: 25 mM Tris-acetate pH 8.0, 8 mM Mg-acetate, 10 mM KCl, 3.5% PEG-8000, 1 mM DTT, 10 ug/ml poly(dI-dC), 200 ug/ml BSA; 20 nM probe (Results: 1 nM); 30 min …. For orientation: In EMSA bound probe runs differently from free probe, usually more slowly.

Consider “GTTCGATTAATCCAGTGAGCCTTTCGGTGCAGTTGGTCTGCGCCAACGCCACTGTCGGCGCGCCGCTGAATCTGGGTGACCTCAAGGCCGGTGAACGCTATAGCATCTTGCTGGTGCCGTCCGCCACAGGCCCGCGCCTGTTGTCGGCCACGGACACACTGTCCAACTGATCGGGTTCTGTCGTCGTTATGGTATTCGCCTCGCTTGAGTTTCTGATGGTGTTCCTGCCGGCTTTTTTGCTGGCCTATGCCGCAAGCCCGGCGGCGTGGCGCAACGTCGTTCTGTTGATCGGCAGTTGG (double strand) [wssH (wssH1)]”, for which the binding result was “no binding”.
